The text below walks through data of US5861501.

The subject of this data set is influenza endonuclease (purified viral ribonucleoprotein, low-pH treated; polymerase-associated cap-dependent endonuclease) (Influenza virus). Description: competition. The conditions noted are these: 5'-triphosphate; 2'-OMe on G1; 3'-terminal 3'-dA; filter retention competition; binding is cap dependent; scale: % of labeled capped 10-mer binding competed at up to 150 nM.

Sequence “GUAUUAAUAA [5'-triphosphorylated 10-mer (uncapped)]” gave a binding signal of 10.
